According to patent US20140087995A1 (published 2014):
Numbered stars: 1 amine (or outer) side, 2 acyl side, 3 side chain; on linkers, the order of the positions; unused ones are H or OH. Bridge positions count the residues as written; N and C are the ends. Side chains are listed from the residue outwards. Ends that are not written are not given here. * marks the point of attachment. C20 diacid = O=C(O)CCCCCCCCCCCCCCCCCCC(=O)*; γGlu = O=C(O)[C@H](CCC(=O)[*:2])N[*:1]; AEEA = NCCOCCOCC(=O)O

T1: rat amylin receptor (rat calcitonin receptor + rat RAMP 3) (rat, UniProt P32214 25-516; Q9JJ73 23-147)
T1 construct: whole, on cells; Used as membranes prepared from BHK tk'ts 13 cells transiently transfected with rat calcitonin receptor and rat RAMP 3 (Assay VI); also called rAmylin-R; rat amylin 3(a) receptor
T1 sequence (looked up) 1: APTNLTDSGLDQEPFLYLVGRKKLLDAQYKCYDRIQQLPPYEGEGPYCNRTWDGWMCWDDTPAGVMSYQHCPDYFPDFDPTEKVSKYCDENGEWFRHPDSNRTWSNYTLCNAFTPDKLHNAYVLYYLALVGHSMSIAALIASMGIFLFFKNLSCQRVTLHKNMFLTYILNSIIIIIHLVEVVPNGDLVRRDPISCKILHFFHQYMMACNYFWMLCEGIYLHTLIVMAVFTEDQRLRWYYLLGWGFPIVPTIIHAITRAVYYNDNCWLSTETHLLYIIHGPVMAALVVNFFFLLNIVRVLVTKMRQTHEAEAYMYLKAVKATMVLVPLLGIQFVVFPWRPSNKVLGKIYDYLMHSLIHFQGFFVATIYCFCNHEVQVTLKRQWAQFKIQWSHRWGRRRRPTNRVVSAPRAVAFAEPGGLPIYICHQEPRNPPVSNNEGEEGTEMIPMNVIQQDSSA
T1 sequence (looked up) 2: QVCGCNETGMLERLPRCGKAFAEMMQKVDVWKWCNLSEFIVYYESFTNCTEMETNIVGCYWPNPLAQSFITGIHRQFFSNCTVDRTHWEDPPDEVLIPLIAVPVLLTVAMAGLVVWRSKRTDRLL

T2: rat calcitonin receptor (rat, UniProt P32214 25-516)
T2 construct: whole, on cells; Used as membranes prepared from BHK tk'ts 13 cells transiently transfected with the rat calcitonin receptor (Assay VIII); also called rCTR; rat calcitonin (a) receptor
T2 sequence (looked up): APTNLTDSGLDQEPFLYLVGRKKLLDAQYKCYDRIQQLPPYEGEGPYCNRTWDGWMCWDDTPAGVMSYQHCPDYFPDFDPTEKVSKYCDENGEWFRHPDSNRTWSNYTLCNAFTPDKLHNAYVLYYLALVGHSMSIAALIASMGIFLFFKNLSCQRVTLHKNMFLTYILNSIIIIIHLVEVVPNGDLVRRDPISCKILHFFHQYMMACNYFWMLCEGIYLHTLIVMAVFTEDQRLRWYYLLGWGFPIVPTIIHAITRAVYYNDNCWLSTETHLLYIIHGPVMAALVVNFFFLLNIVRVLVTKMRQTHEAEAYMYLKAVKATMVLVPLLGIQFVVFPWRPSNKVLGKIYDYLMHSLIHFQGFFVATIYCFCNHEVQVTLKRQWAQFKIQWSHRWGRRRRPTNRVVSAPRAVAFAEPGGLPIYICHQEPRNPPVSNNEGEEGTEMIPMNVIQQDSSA

T3: human calcitonin receptor (human, UniProt P30988 25-474)
T3 construct: whole, on cells; Used as membranes prepared from a BHK tk'ts 13 cell line stably transfected with the human calcitonin receptor (Assay VII); also called hCTR; hCT
T3 sequence (looked up): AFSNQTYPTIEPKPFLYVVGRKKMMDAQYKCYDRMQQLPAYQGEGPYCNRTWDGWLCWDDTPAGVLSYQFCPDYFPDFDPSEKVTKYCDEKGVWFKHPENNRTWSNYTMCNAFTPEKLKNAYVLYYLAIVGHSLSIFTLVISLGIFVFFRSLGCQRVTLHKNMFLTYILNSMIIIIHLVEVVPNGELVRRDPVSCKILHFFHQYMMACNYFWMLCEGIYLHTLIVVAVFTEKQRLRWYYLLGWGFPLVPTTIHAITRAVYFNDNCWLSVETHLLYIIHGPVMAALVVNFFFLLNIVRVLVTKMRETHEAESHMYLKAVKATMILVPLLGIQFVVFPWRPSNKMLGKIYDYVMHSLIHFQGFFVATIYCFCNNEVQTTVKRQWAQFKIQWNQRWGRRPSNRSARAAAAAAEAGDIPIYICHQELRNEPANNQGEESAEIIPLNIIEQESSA


Tests used:
[1] = biological target: T1, rat amylin receptor (rat calcitonin …); test: SPA competition with 125I-rat amylin, membranes of BHK cells with rat CTR + rat RAMP3 (Assay VI)
rat calcitonin receptor [2] = biological target: T2, rat calcitonin receptor; test: IC50 on rat CTR divided by IC50 on rat amylin receptor (Assays VIII/VI)
rat calcitonin receptor [3] = biological target: T2, rat calcitonin receptor; test: SPA competition with 125I-calcitonin, membranes of BHK cells with rat CTR (Assay VIII)
[4] = biological target: T3, human calcitonin receptor; test: IC50 on human CTR divided by IC50 on human amylin receptor (Assays VII/V)
Method in brief: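 Membranes (35 ng/μL final) + SPA beads, 50 mM Hepes pH 7.4 buffer with 1 mM CaCl2, 5 mM MgCl₂, 0.1% OA, 0.02% Tween20; 120 min, 25° C, shaking; centrifuged, counted; IC₅₀ by one-site binding competition.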

Binder | IC50 [1] | Ratio rCT/rAmylin binding (rat calcitonin receptor [2]) | IC50 (rat calcitonin receptor [3]) | Ratio hCT/hAmylin binding [4]
K([AEEA-γGlu-C20 diacid])CNTATCATQRLAHFLRHSSPNFGAIPSSTNVGHNTY-NH2 (disulfide 2-7; N-terminus assumed; SMILES CC[C@H](C)[C@H](NC(=O)[C@H](C)NC(=O)CNC(=O)[C@H](Cc1ccccc1)NC(=O)[C@H](CC(N)=O)NC(=O)[C@@H]1CCCN1C(=O)[C@H](CO)NC(=O)[C@H](CO)NC(=O)[C@H](Cc1c[nH]cn1)NC(=O)[C@H](CCCNC(=N)N)NC(=O)[C@H](CC(C)C)NC(=O)[C@H](Cc1ccccc1)NC(=O)[C@H](Cc1c[nH]cn1)NC(=O)[C@H](C)NC(=O)[C@H](CC(C)C)NC(=O)[C@H](CCCNC(=N)N)NC(=O)[C@H](CCC(N)=O)NC(=O)[C@@H](NC(=O)[C@H](C)NC(=O)[C@@H]1CSSC[C@H](NC(=O)[C@@H](N)CCCCNC(=O)COCCOCCNC(=O)CC[C@H](NC(=O)CCCCCCCCCCCCCCCCCCC(=O)O)C(=O)O)C(=O)N[C@@H](CC(N)=O)C(=O)N[C@@H]([C@@H](C)O)C(=O)N[C@@H](C)C(=O)N[C@@H]([C@@H](C)O)C(=O)N1)[C@@H](C)O)C(=O)N1CCC[C@H]1C(=O)N[C@@H](CO)C(=O)N[C@@H](CO)C(=O)N[C@H](C(=O)N[C@@H](CC(N)=O)C(=O)N[C@H](C(=O)NCC(=O)N[C@@H](Cc1c[nH]cn1)C(=O)N[C@@H](CC(N)=O)C(=O)N[C@H](C(=O)N[C@@H](Cc1ccc(O)cc1)C(N)=O)[C@@H](C)O)C(C)C)[C@@H](C)O, Analogue of human amylin; also called compound 80) | 0.00167 µM | 36.2 | 0.0604 µM | 68.1
K([AEEA-γGlu-C20 diacid])CNTATCATQRLAHFLRHSSPNFGAIPSSTNVGSNTY-NH2 (disulfide 2-7; N-terminus assumed; SMILES CC[C@H](C)[C@H](NC(=O)[C@H](C)NC(=O)CNC(=O)[C@H](Cc1ccccc1)NC(=O)[C@H](CC(N)=O)NC(=O)[C@@H]1CCCN1C(=O)[C@H](CO)NC(=O)[C@H](CO)NC(=O)[C@H](Cc1c[nH]cn1)NC(=O)[C@H](CCCNC(=N)N)NC(=O)[C@H](CC(C)C)NC(=O)[C@H](Cc1ccccc1)NC(=O)[C@H](Cc1c[nH]cn1)NC(=O)[C@H](C)NC(=O)[C@H](CC(C)C)NC(=O)[C@H](CCCNC(=N)N)NC(=O)[C@H](CCC(N)=O)NC(=O)[C@@H](NC(=O)[C@H](C)NC(=O)[C@@H]1CSSC[C@H](NC(=O)[C@@H](N)CCCCNC(=O)COCCOCCNC(=O)CC[C@H](NC(=O)CCCCCCCCCCCCCCCCCCC(=O)O)C(=O)O)C(=O)N[C@@H](CC(N)=O)C(=O)N[C@@H]([C@@H](C)O)C(=O)N[C@@H](C)C(=O)N[C@@H]([C@@H](C)O)C(=O)N1)[C@@H](C)O)C(=O)N1CCC[C@H]1C(=O)N[C@@H](CO)C(=O)N[C@@H](CO)C(=O)N[C@H](C(=O)N[C@@H](CC(N)=O)C(=O)N[C@H](C(=O)NCC(=O)N[C@@H](CO)C(=O)N[C@@H](CC(N)=O)C(=O)N[C@H](C(=O)N[C@@H](Cc1ccc(O)cc1)C(N)=O)[C@@H](C)O)C(C)C)[C@@H](C)O, Analogue of human amylin; also called compound 69) | 0.00045 µM | 104 | 0.0468 µM | 65.3
K([AEEA-γGlu-C20 diacid])CNTATCATQRLAHFLRHSSPNFGAIPSSTPVGSNTY-NH2 (disulfide 2-7; N-terminus assumed; SMILES CC[C@H](C)[C@H](NC(=O)[C@H](C)NC(=O)CNC(=O)[C@H](Cc1ccccc1)NC(=O)[C@H](CC(N)=O)NC(=O)[C@@H]1CCCN1C(=O)[C@H](CO)NC(=O)[C@H](CO)NC(=O)[C@H](Cc1c[nH]cn1)NC(=O)[C@H](CCCNC(=N)N)NC(=O)[C@H](CC(C)C)NC(=O)[C@H](Cc1ccccc1)NC(=O)[C@H](Cc1c[nH]cn1)NC(=O)[C@H](C)NC(=O)[C@H](CC(C)C)NC(=O)[C@H](CCCNC(=N)N)NC(=O)[C@H](CCC(N)=O)NC(=O)[C@@H](NC(=O)[C@H](C)NC(=O)[C@@H]1CSSC[C@H](NC(=O)[C@@H](N)CCCCNC(=O)COCCOCCNC(=O)CC[C@H](NC(=O)CCCCCCCCCCCCCCCCCCC(=O)O)C(=O)O)C(=O)N[C@@H](CC(N)=O)C(=O)N[C@@H]([C@@H](C)O)C(=O)N[C@@H](C)C(=O)N[C@@H]([C@@H](C)O)C(=O)N1)[C@@H](C)O)C(=O)N1CCC[C@H]1C(=O)N[C@@H](CO)C(=O)N[C@@H](CO)C(=O)N[C@H](C(=O)N1CCC[C@H]1C(=O)N[C@H](C(=O)NCC(=O)N[C@@H](CO)C(=O)N[C@@H](CC(N)=O)C(=O)N[C@H](C(=O)N[C@@H](Cc1ccc(O)cc1)C(N)=O)[C@@H](C)O)C(C)C)[C@@H](C)O, Analogue of human amylin; also called compound 61) | 0.000842 µM | 39.7 | 0.0334 µM | 66.7
K([AEEA-γGlu-C20 diacid])CNTATCATQRLAHFLRHSSPNFGAIPSSTNVGPNTY-NH2 (disulfide 2-7; N-terminus assumed; SMILES CC[C@H](C)[C@H](NC(=O)[C@H](C)NC(=O)CNC(=O)[C@H](Cc1ccccc1)NC(=O)[C@H](CC(N)=O)NC(=O)[C@@H]1CCCN1C(=O)[C@H](CO)NC(=O)[C@H](CO)NC(=O)[C@H](Cc1c[nH]cn1)NC(=O)[C@H](CCCNC(=N)N)NC(=O)[C@H](CC(C)C)NC(=O)[C@H](Cc1ccccc1)NC(=O)[C@H](Cc1c[nH]cn1)NC(=O)[C@H](C)NC(=O)[C@H](CC(C)C)NC(=O)[C@H](CCCNC(=N)N)NC(=O)[C@H](CCC(N)=O)NC(=O)[C@@H](NC(=O)[C@H](C)NC(=O)[C@@H]1CSSC[C@H](NC(=O)[C@@H](N)CCCCNC(=O)COCCOCCNC(=O)CC[C@H](NC(=O)CCCCCCCCCCCCCCCCCCC(=O)O)C(=O)O)C(=O)N[C@@H](CC(N)=O)C(=O)N[C@@H]([C@@H](C)O)C(=O)N[C@@H](C)C(=O)N[C@@H]([C@@H](C)O)C(=O)N1)[C@@H](C)O)C(=O)N1CCC[C@H]1C(=O)N[C@@H](CO)C(=O)N[C@@H](CO)C(=O)N[C@H](C(=O)N[C@@H](CC(N)=O)C(=O)N[C@H](C(=O)NCC(=O)N1CCC[C@H]1C(=O)N[C@@H](CC(N)=O)C(=O)N[C@H](C(=O)N[C@@H](Cc1ccc(O)cc1)C(N)=O)[C@@H](C)O)C(C)C)[C@@H](C)O, Analogue of human amylin; also called compound 68) | 0.000234 µM | 122 | 0.0285 µM | 64.4
K([AEEA-γGlu-C20 diacid])CNTATCATQRLAKFLRHSSPNFGAIPSSTPVGSNTY-NH2 (disulfide 2-7; N-terminus assumed; SMILES CC[C@H](C)[C@H](NC(=O)[C@H](C)NC(=O)CNC(=O)[C@H](Cc1ccccc1)NC(=O)[C@H](CC(N)=O)NC(=O)[C@@H]1CCCN1C(=O)[C@H](CO)NC(=O)[C@H](CO)NC(=O)[C@H](Cc1c[nH]cn1)NC(=O)[C@H](CCCNC(=N)N)NC(=O)[C@H](CC(C)C)NC(=O)[C@H](Cc1ccccc1)NC(=O)[C@H](CCCCN)NC(=O)[C@H](C)NC(=O)[C@H](CC(C)C)NC(=O)[C@H](CCCNC(=N)N)NC(=O)[C@H](CCC(N)=O)NC(=O)[C@@H](NC(=O)[C@H](C)NC(=O)[C@@H]1CSSC[C@H](NC(=O)[C@@H](N)CCCCNC(=O)COCCOCCNC(=O)CC[C@H](NC(=O)CCCCCCCCCCCCCCCCCCC(=O)O)C(=O)O)C(=O)N[C@@H](CC(N)=O)C(=O)N[C@@H]([C@@H](C)O)C(=O)N[C@@H](C)C(=O)N[C@@H]([C@@H](C)O)C(=O)N1)[C@@H](C)O)C(=O)N1CCC[C@H]1C(=O)N[C@@H](CO)C(=O)N[C@@H](CO)C(=O)N[C@H](C(=O)N1CCC[C@H]1C(=O)N[C@H](C(=O)NCC(=O)N[C@@H](CO)C(=O)N[C@@H](CC(N)=O)C(=O)N[C@H](C(=O)N[C@@H](Cc1ccc(O)cc1)C(N)=O)[C@@H](C)O)C(C)C)[C@@H](C)O, Analogue of human amylin; also called compound 74) | 0.00489 µM | 22.3 | 0.109 µM | 101
